Values of other authors, collected in paper PMC4626678.

Target: Trypsin (Bos taurus) (UniProt P00760)
Sequence (P00760 149-246): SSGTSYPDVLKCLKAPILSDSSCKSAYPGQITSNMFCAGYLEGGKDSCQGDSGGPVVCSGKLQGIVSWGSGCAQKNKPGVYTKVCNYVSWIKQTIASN

ShPI-1, sequence (P31713 whole entry): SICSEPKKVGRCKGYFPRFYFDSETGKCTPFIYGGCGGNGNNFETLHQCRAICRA

ShPI-1 (from UniProt P31713)
Ki: 0.11 nM
